{"source": "paper PMC6754406", "about": "“Ran pathway-independent regulation of mitotic Golgi disassembly by Importin-α” (Nature Communications, 2019)", "key": {"[1]": {"target": "GM130-NLS phospho-S25 (synthetic peptide with a phosphate moiety on Ser-25 of GM130, a.a. 13-40) (human)", "assay": "ITC; MicroCal iTC200, 25 °C, 20 mM HEPES pH 7.4, 1 mM DTT, with either 50 or 200 mM NaCl (which one is shown only in the figures); one-sites binding model"}, "[2]": {"target": "GST-GM130-S25D (a.a. 1-85) (human)", "assay": "pull-down; GST-GM130 (or GST-IBB) and the recombinant partner at 1:1 molar ratio on glutathione sepharose beads, wash with 150 mM NaCl, elution with 50 mM reduced glutathione, SDS-PAGE, Coomassie blue"}, "[3]": {"target": "GST-GM130-WT (a.a. 1-85) (human)", "assay": "pull-down; competition: p115-CTD with GST-GM130-WT or GST-GM130-S25D and increasing concentrations of Importin-α FL (up to 40 μM); GST beads, SDS-PAGE, Coomassie blue, band intensities normalised by GST-GM130"}, "[4]": {"target": "GST-GM130-S25D (a.a. 1-85) (human)", "assay": "pull-down; competition: p115-CTD with GST-GM130-WT or GST-GM130-S25D and increasing concentrations of Importin-α FL (up to 40 μM); GST beads, SDS-PAGE, Coomassie blue, band intensities normalised by GST-GM130"}, "[5]": {"target": "GST-GM130-S25D (a.a. 1-85) (human)", "assay": "pull-down; 5 µM GST-GM130 with HEK293T cell lysate (RIPA buffer) and glutathione sepharose beads, washes with 150 mM NaCl, Western blot for Importin-α and Importin-β"}, "[6]": {"target": "GM130-NLS WT peptide (human)", "assay": "ITC; MicroCal iTC200, 25 °C, 20 mM HEPES pH 7.4, 1 mM DTT, with either 50 or 200 mM NaCl (which one is shown only in the figures); one-sites binding model"}}}
{"substance": "Importin-α FL (full-length Importin-α), recombinant (from UniProt P52292 1-529) (natural protein)", "values": [{"measurement": "fold lower dissociation constant than GM130-NLS WT", "setting": "[1]", "value": 3.3, "unit": "fold"}, {"measurement": "percent of Importin-α FL pulled down relative to Importin-α(ΔIBB)", "setting": "[2]", "value": 50, "unit": "%"}, {"measurement": "percent p115-CTD remaining on GM130 with 40 μM Importin-α FL", "setting": "[3]", "value": 38, "unit": "%"}, {"measurement": "fold Importin-α FL pulldown against wild-type GM130 (40 μM Importin-α FL)", "setting": "[4]", "value": 2, "unit": "fold"}, {"measurement": "percent p115-CTD remaining on GM130 with 40 μM Importin-α FL", "setting": "[4]", "value": 20, "unit": "%"}]}
{"substance": "Importin-α(ΔIBB) (Importin-α lacking the IBB domain, a.a. 70-524) (from UniProt P52293 70-524) (domain or fragment)", "values": [{"measurement": "Kd", "setting": "[1]", "value": 126, "unit": "nM"}]}
{"substance": "Importin-α, endogenous in HEK293T cells (from UniProt P52292 1-529) (natural protein)", "values": [{"measurement": "fold Importin-α pulldown against wild-type GST-GM130", "setting": "[5]", "value": 1.3, "unit": "fold"}]}
{"substance": "Importin-β, recombinant, non-tagged (from UniProt Q14974 1-876) (natural protein)", "values": [{"measurement": "fold lower binding constant than the wild-type GM130 peptide", "setting": "[1]", "value": "> 1000", "unit": "fold"}, {"measurement": "Kd", "setting": "[6]", "value": 1200, "unit": "nM"}]}
